This assay concerns the target PspGI-D138A selenomethionine variant (Pyrococcus GI-H). Briefly: crystal structure.

One substance from PMC2577326 can be followed below.

One may read the stoichiometry N as a count of units in the complex or per binding partner. For “PspGI-D138A selenomethionine variant (enzyme)”, the stoichiometry N was determined as 2.
